Test results as given in patent US20180291096A1 (Janssen / Centocor, published 2018).

T1: recombinant human IL-23 (hrIL-23), produced at Centocor (human, UniProt P29460 23-328)
T1 sequence 1: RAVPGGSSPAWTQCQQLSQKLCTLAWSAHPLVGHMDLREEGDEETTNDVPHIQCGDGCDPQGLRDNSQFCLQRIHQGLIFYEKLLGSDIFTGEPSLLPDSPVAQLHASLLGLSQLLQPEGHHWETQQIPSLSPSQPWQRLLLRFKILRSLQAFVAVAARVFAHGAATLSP
T1 sequence 2: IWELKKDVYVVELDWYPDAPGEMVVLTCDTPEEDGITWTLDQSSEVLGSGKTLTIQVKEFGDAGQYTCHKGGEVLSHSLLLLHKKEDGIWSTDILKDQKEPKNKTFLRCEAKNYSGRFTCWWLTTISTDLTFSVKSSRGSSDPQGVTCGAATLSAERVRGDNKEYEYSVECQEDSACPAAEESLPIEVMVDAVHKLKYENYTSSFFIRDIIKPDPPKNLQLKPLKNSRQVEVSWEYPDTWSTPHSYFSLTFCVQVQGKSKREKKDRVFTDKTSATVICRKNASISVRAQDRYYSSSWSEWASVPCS


target: T1, recombinant human IL-23 (hrIL-23), …; assay: cell-based or functional assay

IC50, inhibition of IL-17 production [µg/mL] | Binder
0.00323 | MOR05054 mAb (antibody, human IgG1, V domains shown) VH: QVELVESGGGLVQPGGSLRLSCAASGFTFSSFGMSWVRQAPGKGLEWVSGIEHKYLSYATLYAASVKGRFTISRDNSKNTLYLQMNSLRAEDTAVYYCARYWGTPYLMQFDNWGQGTLVTVSS VL: DIALTQPASVSGSPGQSITISCTGTSSDVGGYNSVSWYQQHPGKAPKLMIYSVSSRPSGVSNRFSGSKSGNTASLTISGLQAEDEADYYCSSYDTNKPLVVFGGGTKLTVL
0.0234 | MOR05047 mAb (antibody, human IgG1, V domains shown) VH: QVELVESGGGLVQPGGSLRLSCAASGFTFSSFGMSWVRQAPGKGLEWVSNIEHKYLGYATSYAASVKGRFTISRDNSKNTLYLQMNSLRAEDTAVYYCARYWGTPYLMQFDNWGQGTLVTVSS VL: DIALTQPASVSGSPGQSITISCTGTSSDVGGYNSVSWYQQHPGKAPKLMIYSVSSRPSGVSNRFSGSKSGNTASLTISGLQAEDEADYYCSSYDTNKPLVVFGGGTKLTVL
0.0162 | MOR05048 mAb (antibody, human IgG1, V domains shown) VH: QVELVESGGGLVQPGGSLRLSCAASGFTFSSFGMSWVRQAPGKGLEWVSNIEHKFMGYTTYYAAGVKGRFTISRDNSKNTLYLQMNSLRAEDTAVYYCARYWGTPYLMQFDNWGQGTLVTVSS VL: DIALTQPASVSGSPGQSITISCTGTSSDVGGYNSVSWYQQHPGKAPKLMIYSVSSRPSGVSNRFSGSKSGNTASLTISGLQAEDEADYYCSSYDTNKPLVVFGGGTKLTVL
0.0916 | MOR05055 mAb (antibody, human IgG1, V domains shown) VH: QVELVESGGGLVQPGGSLRLSCAASGFTFSSFGMSWVRQAPGKGLEWVSNIEHKYLGYATVYAASVKGRFTISRDNSKNTLYLQMNSLRAEDTAVYYCARYWGTPYLMQFDNWGQGTLVTVSS VL: DIALTQPASVSGSPGQSITISCTGTSSDVGGYNSVSWYQQHPGKAPKLMIYSVSSRPSGVSNRFSGSKSGNTASLTISGLQAEDEADYYCSSYDTNKPLVVFGGGTKLTVL
0.0277 | MOR05050 mAb (antibody, human IgG1, V domains shown) VH: QVELVESGGGLVQPGGSLRLSCAASGFTFSSFGMSWVRQAPGKGLEWVSSIEHKYTGYTTYYAAPVKGRFTISRDNSKNTLYLQMNSLRAEDTAVYYCARYWGTPYLMQFDNWGQGTLVTVSS VL: DIALTQPASVSGSPGQSITISCTGTSSDVGGYNSVSWYQQHPGKAPKLMIYSVSSRPSGVSNRFSGSKSGNTASLTISGLQAEDEADYYCSSYDTNKPLVVFGGGTKLTVL
0.0663 | MOR05051 mAb (antibody, human IgG1, V domains shown) VH: QVELVESGGGLVQPGGSLRLSCAASGFTFSSFGMSWVRQAPGKGLEWVSQIEHKYLSYTTLYAASVKGRFTISRDNSKNTLYLQMNSLRAEDTAVYYCARYWGTPYLMQFDNWGQGTLVTVSS VL: DIALTQPASVSGSPGQSITISCTGTSSDVGGYNSVSWYQQHPGKAPKLMIYSVSSRPSGVSNRFSGSKSGNTASLTISGLQAEDEADYYCSSYDTNKPLVVFGGGTKLTVL
0.0178 | MOR05052 mAb (antibody, human IgG1, V domains shown) VH: QVELVESGGGLVQPGGSLRLSCAASGFTFSSFGMSWVRQAPGKGLEWVSSIEHKYLSYTTFYAASVKGRFTISRDNSKNTLYLQMNSLRAEDTAVYYCARYWGTPYLMQFDNWGQGTLVTVSS VL: DIALTQPASVSGSPGQSITISCTGTSSDVGGYNSVSWYQQHPGKAPKLMIYSVSSRPSGVSNRFSGSKSGNTASLTISGLQAEDEADYYCSSYDTNKPLVVFGGGTKLTVL
0.00493 | MOR05053 mAb (antibody, human IgG1, V domains shown) VH: QVELVESGGGLVQPGGSLRLSCAASGFTFSSFGMSWVRQAPGKGLEWVSNIEHKYTSYTTYYAASVKGRFTISRDNSKNTLYLQMNSLRAEDTAVYYCARYWGTPYLMQFDNWGQGTLVTVSS VL: DIALTQPASVSGSPGQSITISCTGTSSDVGGYNSVSWYQQHPGKAPKLMIYSVSSRPSGVSNRFSGSKSGNTASLTISGLQAEDEADYYCSSYDTNKPLVVFGGGTKLTVL
0.276 | MOR04649 mAb (antibody, human IgG1, V domains shown) VH: QVELVQSGAEVKKPGESLKISCKGSGYSFSNYWIGWVRQMPGKGLEWMGIIDPSNSYTNYSPSFQGQVTISADKSISTAYLQWSSLKASDTAMYYCARWYYKPFDVWGQGTLVTVSS VL: DIVLTQPPSVSGAPGQRVTISCTGSSSNIGSGYDVHWYQQLPGTAPKLLIYGNSKRPSGVPDRFSGSKSGTSASLAITGLQSEDEADYYCSSWTPSSVVFGGGTKLTVL
0.00301 | MOR05041 mAb (antibody, human IgG1, V domains shown) VH: QVELVQSGAEVKKPGESLKISCKGSGYSFSNYWIGWVRQMPGKGLEWMGIISPTGSVTWYSPSFQGQVTISADKSISTAYLQWSSLKASDTAMYYCARWYYKPFDVWGQGTLVTVSS VL: DIVLTQPPSVSGAPGQRVTISCTGSSSNIGSGYDVHWYQQLPGTAPKLLIYGNSKRPSGVPDRFSGSKSGTSASLAITGLQSEDEADYYCSSWTPSSVVFGGGTKLTVL
0.0144 | MOR05043 mAb (antibody, human IgG1, V domains shown) VH: QVELVQSGAEVKKPGESLKISCKGSGYSFSNYWIGWVRQMPGKGLEWMGFISPDGSHTWYSPSFQGQVTISADKSISTAYLQWSSLKASDTAMYYCARWYYKPFDVWGQGTLVTVSS VL: DIVLTQPPSVSGAPGQRVTISCTGSSSNIGSGYDVHWYQQLPGTAPKLLIYGNSKRPSGVPDRFSGSKSGTSASLAITGLQSEDEADYYCSSWTPSSVVFGGGTKLTVL
0.0106 | MOR05059 mAb (antibody, human IgG1, V domains shown) VH: QVELVQSGAEVKKPGESLKISCKGSGYSFSNYWIGWVRQMPGKGLEWMGIIDPSNSYTNYSPSFQGQVTISADKSISTAYLQWSSLKASDTAMYYCARWYYKPFDVWGQGTLVTVSS VL: DIVLTQPPSVSGAPGQRVTISCTGSSSNIGSGYDVHWYQQLPGTAPKLLIYGNSKRPSGVPDRFSGSKSGTSASLAITGLQSEDEADYYCASWTDGLSLVVFGGGTKLTVL
0.0428 | MOR05046 mAb (antibody, human IgG1, V domains shown) VH: QVELVQSGAEVKKPGESLKISCKGSGYSFSNYWIGWVRQMPGKGLEWMGIIDPVSSWTKYSPSFQGQVTISADKSISTAYLQWSSLKASDTAMYYCARWYYKPFDVWGQGTLVTVSS VL: DIVLTQPPSVSGAPGQRVTISCTGSSSNIGSGYDVHWYQQLPGTAPKLLIYGNSKRPSGVPDRFSGSKSGTSASLAITGLQSEDEADYYCSSWTPSSVVFGGGTKLTVL
0.0141 | MOR05044 mAb (antibody, human IgG1, V domains shown) VH: QVELVQSGAEVKKPGESLKISCKGSGYSFSNYWIGWVRQMPGKGLEWMGIISPSGSTTWYSPSFQGQVTISADKSISTAYLQWSSLKASDTAMYYCARWYYKPFDVWGQGTLVTVSS VL: DIVLTQPPSVSGAPGQRVTISCTGSSSNIGSGYDVHWYQQLPGTAPKLLIYGNSKRPSGVPDRFSGSKSGTSASLAITGLQSEDEADYYCSSWTPSSVVFGGGTKLTVL
0.00285 | MOR05058 mAb (antibody, human IgG1, V domains shown) VH: QVELVQSGAEVKKPGESLKISCKGSGYSFSNYWIGWVRQMPGKGLEWMGIIDPSNSYTNYSPSFQGQVTISADKSISTAYLQWSSLKASDTAMYYCARWYYKPFDVWGQGTLVTVSS VL: DIVLTQPPSVSGAPGQRVTISCTGSSSNIGSGYDVHWYQQLPGTAPKLLIYGNSKRPSGVPDRFSGSKSGTSASLAITGLQSEDEADYYCSSWTDTPNMIVFGGGTKLTVL
0.00127 | MOR05042 mAb (antibody, human IgG1, V domains shown) VH: QVELVQSGAEVKKPGESLKISCKGSGYSFSNYWIGWVRQMPGKGLEWMGIISPTGSSTWYSPSFQGQVTISADKSISTAYLQWSSLKASDTAMYYCARWYYKPFDVWGQGTLVTVSS VL: DIVLTQPPSVSGAPGQRVTISCTGSSSNIGSGYDVHWYQQLPGTAPKLLIYGNSKRPSGVPDRFSGSKSGTSASLAITGLQSEDEADYYCSSWTPSSVVFGGGTKLTVL
0.0014 | MOR05045 mAb (antibody, human IgG1, V domains shown) VH: QVELVQSGAEVKKPGESLKISCKGSGYSFSNYWIGWVRQMPGKGLEWMGIISPTGSATWYSPSFQGQVTISADKSISTAYLQWSSLKASDTAMYYCARWYYKPFDVWGQGTLVTVSS VL: DIVLTQPPSVSGAPGQRVTISCTGSSSNIGSGYDVHWYQQLPGTAPKLLIYGNSKRPSGVPDRFSGSKSGTSASLAITGLQSEDEADYYCSSWTPSSVVFGGGTKLTVL
0.00264 | MOR05040 mAb (antibody, human IgG1, V domains shown) VH: QVELVQSGAEVKKPGSSVKVSCKASGGTFSSNYISWVRQAPGQGLEWMGISPGTGINAYYAQKFQGRVTITADESTSTAYMELSSLRSEDTAVYYCARSKKGMYGGWTYPLMMFDLWGQGTLVTVSS VL: not shown
0.0646 | MOR05030 mAb (antibody, human IgG1, V domains shown) VH: QVELVQSGAEVKKPGSSVKVSCKASGGTFSSNYISWVRQAPGQGLEWMGGIIPIFGHANYAQKFQGRVTITADESTSTAYMELSSLRSEDTAVYYCARSKKGMYGGWTYPLMMFDLWGQGTLVTVSS VL: not shown
0.0491 | MOR05029 mAb (antibody, human IgG1, V domains shown) VH: QVELVQSGAEVKKPGSSVKVSCKASGGTFSSNYISWVRQAPGQGLEWMGGIIPIFGHANYAQKFQGRVTITADESTSTAYMELSSLRSEDTAVYYCARSKKGMYGGWTYPLMMFDLWGQGTLVTVSS VL: not shown
0.0282 | MOR05038 mAb (antibody, human IgG1, V domains shown) VH: QVELVQSGAEVKKPGSSVKVSCKASGGTFSSNYISWVRQAPGQGLEWMGINAHLGGTWYAQKFQGRVTITADESTSTAYMELSSLRSEDTAVYYCARSKKGMYGGWTYPLMMFDLWGQGTLVTVSS VL: not shown
